Measurements reported in publication PMC11363339, “Structural Basis for Methine Excision by a Heme Oxygenase-like Enzyme” (ACS Central Science, 2024).

Biological target: the molecule itself
Experiment: SEC-MALS; size exclusion chromatography coupled with multiangle light scattering on FlcD without a His6-tag

B1: FlcD without a His6-tag (FlcD_(tagless)) (enzyme, Pseudomonas aeruginosa)
chain: MNTRNFSLPQLQNLPIEEARIVADALAVHATSRQIDSAASKLAALAEAGLKGDRQAYAAYQQLLYVLSLSDDVATAQTRRWLARAIYRVEERFMPAADLSRALSEEDFQKRLEQEIAAQSRERHPMSQYVFSGSASRAQLQVFLRHQWFRTFRLYRDAADLLVNLTDVDEAAALARYLYGELGEEDEKGSHPRLLAKLLEAIGLEADFQAVSTMPEEIAYLNNRARAFRHAEVGWGLAVFYITELVVPGNHEKLYRALLQAGLSEDQAEYYKVHISLVPPRAKREWQLIARRIPDVQFQNAFLTSLSQHFRVERAYYDAIWEEMQSVK
notes: FlcD, heme oxygenase-like domain-containing oxidase (HDO) of Pseudomonas aeruginosa, without a His6-tag; see the Supporting Information PDF
stoichiometry N: 2
